Source: patent publication US20200354475A1 (KITE PHARMA, published 2020)

Target: T1, CAR comprising the anti-CD19 scFv FMC63 (SEQ ID NO: 1)
T1 construct: also called FMC63 CAR; CAR presenting the anti-CD19 scFv FMC63; not shown: rest of the CAR (hinge, transmembrane and signalling domains) is not described for the constructs used
Assay: immunohistochemistry on fixed cell pellets of CAR T cells presenting the FMC63 scFv, PBMC as control
Description: Several antibodies disclosed herein, (Clones 7 and 13) were assessed with respect to their ability to function as reagents in immunohistochemistry (IHC) studies. To create the fixed cell pellets for IHC staining, ˜2e6 CAR T cells presenting the anti-CD19 scFv FMC63 (SEQ ID NO: 1) were centrifuged and washed with PBS. The cells were resuspended in PBS containing 0.45% paraformaldehyde (PFA) and incubated on a shaking platform for 2 hours at room temperature. After the incubation, the cells were washed once more with PBS and resuspended in PBS with 5% BSA.

T1 sequence (chain, as listed by the source): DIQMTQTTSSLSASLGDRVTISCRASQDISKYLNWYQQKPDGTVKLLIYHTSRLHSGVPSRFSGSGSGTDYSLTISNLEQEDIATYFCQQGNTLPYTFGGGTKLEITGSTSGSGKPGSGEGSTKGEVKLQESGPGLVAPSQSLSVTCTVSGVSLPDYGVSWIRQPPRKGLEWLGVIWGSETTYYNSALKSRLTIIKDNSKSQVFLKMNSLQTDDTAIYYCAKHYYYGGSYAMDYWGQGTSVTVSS

B1: Clone 7 (antibody, V domains shown)
VH: QEQLEESGGDLVKPGGTLTVTCKASGFSFSNNGICWVRQAPGKGLEWIGCLYVGSSDTTYYASWAKGRFTISKSSSTTVTLQMTSLTVADTATYFCTINLGLWGPGTLVTVSS
VL: AIVVTQTPSSKSVPVGGTVTINCQASESVYNSDWLAWYQQKPGQPPKQLIYAASTLASGVPSRFKGSGSGTQFTLTISDVVCDDAATYYCAGYKSSSTDGIAFGGGTEVVVKG
notes: Rabbit monoclonal antibody from a hybridoma; also called antibody Clone 7
binding result: binds
